This passage reports amyloid nucleation score results from the supplement of paper PMC12042874.

± gives the uncertainty stated by the source.

This data set is described as follows: amyloid nucleation score (Sup35N fusion, yeast selection) (log enrichment); library NNK2; higher = more nucleation; inactive = no reads after selection. The method, boiled down: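 The nucleation score is a DiMSum log enrichment of output over input reads, centred on the mode score of non-aggregating sequences. Sequences under 100 input reads were excluded, and reads came from Illumina sequencing of plasmid inserts. Psi-negative yeast expressing Sup35N fused to peptides of 20 random codons were induced with 100 μM copper sulfate for 24 hours and grown 7 days at 30°C on medium lacking adenine and uracil. Random libraries had three technical output replicates.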
The substance GKCTGRPPMNHSSLL came in with an amyloid nucleation score of 0.832 ± 0.39.

In turn, LQVVKKSNA yielded an amyloid nucleation score of 3.61 ± 0.061.

PWNLLGWLRRS returned an amyloid nucleation score of 0.108 ± 0.23.

For the substance TGAGVNTGEFCWVDPRSDYQ, the amyloid nucleation score is -0.161 ± 1.1.

Consider LSIRYLVYEPN, for which the amyloid nucleation score stood at 0.27 ± 0.36.

In turn, NYIMWLWQQTGWSNGWCALI showed an amyloid nucleation score of 0.312 ± 0.61.

Take GCDVDKVNGRRVVYPDTEGL: the amyloid nucleation score is 0.697 ± 0.81.

With LQSSKVWDFMLGLGVSGRVE, the amyloid nucleation score is 1.55 ± 0.14.

The substance LSGKT displayed an amyloid nucleation score of 0.312 ± 0.54.

In turn, ISYKAWMFRGRMNSVGISRY had an amyloid nucleation score of -0.299 ± 0.63.

The substance DCSCFYFF gave an amyloid nucleation score of 2.96 ± 0.08.

FVVQFMGADHAFKERFGGH yielded an amyloid nucleation score of 1.87 ± 0.2.

For the substance RMSIWRFRMSLAQDGLGRFQ, the amyloid nucleation score was 5.564 ± 0.044.

On to GYTTMRKCFAQVEFRTPADT, for which the amyloid nucleation score result is “inactive”.

WCSCQPSFSKKHGEFYNLFL yielded an amyloid nucleation score of 9.215 ± 0.032.

KSYLFESRKIGIVTNMGSYF: the amyloid nucleation score is -0.594 ± 1.1.

On to VDTGEVNTF, for which the amyloid nucleation score is 1.76 ± 0.086.

Take TLLLTWQY: the amyloid nucleation score was 4.46 ± 0.067.

For the substance CMTTYTNLIHIPIQVSTPKR, the amyloid nucleation score came to 7.51 ± 0.043.

SYVMFSIMEH: the amyloid nucleation score turned out to be 0.354 ± 0.65.

Regarding VHFMIMQNSNCYCVKHIDFM, the amyloid nucleation score came out at 9.425 ± 0.04.

On to SLQSDQSADFREDKGRSKAE, for which the amyloid nucleation score is 0.898 ± 0.32.

With LMYTFVGCSINVCFGGSGCL, the amyloid nucleation score worked out at 8.873 ± 0.034.

Turning to EYSYVVGMFREIVDTRTVFV, the amyloid nucleation score was found to be 0.107 ± 0.2.

Regarding MFARDNRFPYCDDTRSDSSF, the amyloid nucleation score came to 0.178 ± 0.45.

In turn, DNSFMSLYLVRIHFTYPVAA yielded an amyloid nucleation score of 3.69 ± 0.082.

GIVFIYMNRPSFVVDDLTAG had an amyloid nucleation score of 7.27 ± 0.078.

In turn, SSRYPVIWESFVPNWTNSHF came in with an amyloid nucleation score of -1.22 ± 1.1.

Take NSFVCMLPGVFVKCRCSNAD: the amyloid nucleation score came out at 4.832 ± 0.044.

Substance VLAKISTTE registered an amyloid nucleation score of 0.705 ± 0.15.

As to PARLCAVVL, the amyloid nucleation score stood at 0.066 ± 0.76.

With FKNCDGRNIRSSHNPFNMVR, the amyloid nucleation score was -0.857 ± 0.34.

Take SPLRALLTHVWRKQHTYFSN: the amyloid nucleation score amounted to 3.14 ± 0.08.

The substance CRLVEAEYSSRKRLQVSLWA registered an amyloid nucleation score of 0.102 ± 0.79.

FTLWFQTLARGGMLARNLFK had an amyloid nucleation score of -1.17 ± 0.75.

For the substance FRFVEFNNSGNVCPLIFTLS, the amyloid nucleation score is -0.266 ± 0.65.

Regarding MVHPDVNHSYGSVWKPWSDK, the amyloid nucleation score turned out to be 0.132 ± 0.44.

SFFPS had an amyloid nucleation score of -0.301 ± 0.45.

Turning to TMFTFIAANSRWLNAKIPWY, the amyloid nucleation score is 0.157 ± 0.25.

IDLTHECVRVWVDSKLLSPF registered an amyloid nucleation score of -0.742 ± 1.1.

TRPVNLDLIFISSG showed an amyloid nucleation score of 2.92 ± 0.098.

TGNDFSCFPRALEMATWTTV had an amyloid nucleation score of 0.016 ± 1.1.

HRCNMGLSWTGVYQRVGKSS yielded an amyloid nucleation score of 0.757 ± 0.57.

For the substance VYLGSGFAARRSSGEQRRIS, the amyloid nucleation score was 0.536 ± 0.66.

With PSDFYWSMFEQYCHGV, the amyloid nucleation score was 4.51 ± 0.05.

On to SVFMIYKTVSGGHAYFVVQQ, for which the amyloid nucleation score worked out at 4.97 ± 0.072.

With YRYPRCRVRLVS, the amyloid nucleation score is -0.822 ± 0.35.

In the case of FSSIDWLCRRCSQGNRAGID, the amyloid nucleation score was found to be 0.371 ± 0.66.

LVKMTLGCATSMLRCLMLSV had an amyloid nucleation score of 0.457 ± 0.24.

As to TLENQVGSMSIGGFSGGYRR, the amyloid nucleation score stood at 0.201 ± 1.

In the case of ICKRIFGRYRYLSSEVDCVS, the amyloid nucleation score was -1.54 ± 0.55.

For GRYLVSKTCFFYLMGNEVN, the amyloid nucleation score was -0.307 ± 0.56.

Substance SVSDLLLIYVIESSCSHGFK had an amyloid nucleation score of 4.72 ± 0.072.

Substance DQLVLELHWTESILSYVVMP had an amyloid nucleation score of 0.816 ± 0.48.

Turning to FLVFHPRDSMNI, the amyloid nucleation score was 1.49 ± 0.44.

With SDDLCHCIFGVVPGKSFPTM, the amyloid nucleation score result was “inactive”.

With PISWGRLFNMVPR, the amyloid nucleation score is -0.98 ± 0.55.

As for QHKDLYLW, the amyloid nucleation score result is “inactive”.

Substance VHLLGDFGLASQRRNECKLL yielded an amyloid nucleation score of 0.477 ± 0.28.

FPFSGFVDFSVLVLRYKGSP yielded an amyloid nucleation score of 1.82 ± 0.16.

Consider HCSDFDLVSAKWSSQWARNG, for which the amyloid nucleation score came to 1.13 ± 0.4.

FQRFVIK came in with an amyloid nucleation score of -2.12 ± 0.44.

Regarding YCFSVYKGVGIGKKCGYLSS, the amyloid nucleation score entry was “inactive”.

For PYIEVY, the amyloid nucleation score came out at 0.926 ± 0.52.

IFRCRYTSGRFNAALSCC: the amyloid nucleation score was -1.44 ± 0.49.

HCYSRPFESSSFMNSVSLKY had an amyloid nucleation score of -0.149 ± 0.76.

Turning to RDVFTFYNKGEFERCQTLVY, the amyloid nucleation score came out at 0.092 ± 1.1.

Regarding SASVHYHYDMK, the amyloid nucleation score stood at 0.268 ± 0.62.

In turn, GGGGCSSDFTQKTPPGQAKA displayed an amyloid nucleation score of -0.102 ± 0.36.

As for ISESLSRWART, the amyloid nucleation score was determined as 3.69 ± 0.12.

EICRY: the amyloid nucleation score entry was “inactive”.

In the case of RIITGPGWTVAGSPVRGVRG, the amyloid nucleation score was found to be 1.68 ± 0.19.

WVFKCVSNKERNYISCACSM came in with an amyloid nucleation score of 4.79 ± 0.063.

On to FMLSVPNVDRFVRRMLGTPE, for which the amyloid nucleation score turned out to be 1.05 ± 0.42.

Consider VVSFNWLEYVSNMSQMNWDG, for which the amyloid nucleation score was -0.015 ± 0.63.

Turning to IRSMACDIPGV, the amyloid nucleation score is -0.255 ± 0.65.

LCMQSVSGALSPSARRRLCV had an amyloid nucleation score of -0.235 ± 1.1.

The substance WWKQWRYTGYLLLSHLSNRS registered an amyloid nucleation score of -0.087 ± 0.42.

With YCTSDG, the amyloid nucleation score amounted to 0.559 ± 0.8.

For KVSKTCY, the amyloid nucleation score is 0.497 ± 0.24.

The substance TDVPSRIGPDMGKYLKAES came in with an amyloid nucleation score of 0.655 ± 0.62.

IVCTYFHSTPSCYRLASNWY gave an amyloid nucleation score of 0.284 ± 1.1.

Consider SNCRLGKGYYNCF, for which the amyloid nucleation score was -0.833 ± 0.41.

Consider FCILYSVFNGRLRYAFGDAS, for which the amyloid nucleation score is -2.06 ± 0.62.

Regarding MSRNF, the amyloid nucleation score was found to be 4.87 ± 0.076.

For the substance VIIINIVFKSGMGQLLGHRR, the amyloid nucleation score worked out at 6.53 ± 0.074.

VDTRS yielded an amyloid nucleation score of 0.382 ± 0.8.

ENLPGWLLVKMVQYY had an amyloid nucleation score of 0.276 ± 0.54.

Regarding DTWEELFKNRDNPRRKCVGL, the amyloid nucleation score is 1.32 ± 0.41.

The substance PPCYALDRFLSGSLTVLSPV returned an amyloid nucleation score of -0.36 ± 0.35.

Regarding DYVNGGCLKFKNWRWKFSLS, the amyloid nucleation score was -0.349 ± 0.48.

As to HSLFRLLRTSVHAEKSWSNS, the amyloid nucleation score is 2.88 ± 0.063.

Turning to CYAGFCN, the amyloid nucleation score entry is “inactive”.

The substance VTDQVVFSEWIAADYMFDKY registered an amyloid nucleation score of 0.491 ± 0.52.

The substance SADRRQGITRFGTFNGGVRS had an amyloid nucleation score of 0.481 ± 0.24.

Regarding IKLQMSLATAQIETGTHGLH, the amyloid nucleation score was 3.51 ± 0.16.

In the case of LTACEQSWLKILLLMEMQTL, the amyloid nucleation score was -0.137 ± 0.54.

On to YGLDRIFVSGSMNATMIKHN, for which the amyloid nucleation score entry was “inactive”.

As to GKDCSRVNKHWCQRGRQGMV, the amyloid nucleation score is 0.922 ± 0.58.

Regarding PRRCSISIEFRDE, the amyloid nucleation score was -0.718 ± 0.76.

YCRHGGNRASL gave an amyloid nucleation score of 0.783 ± 0.53.

In turn, ESTAWAQVIPDNRLCGRNCR came in with an amyloid nucleation score of -0.153 ± 1.1.

Regarding SWVEGRLDGVFWRLVLFTEN, the amyloid nucleation score was 0.433 ± 0.74.

With RTLFV, the amyloid nucleation score is -0.146 ± 0.63.

Regarding ALSSVFYIDFHFDYLYDVTL, the amyloid nucleation score was 2.72 ± 0.2.

For RRETRMGVSSVLDPVAGRWP, the amyloid nucleation score was 1.58 ± 0.17.

For the substance KHVLGWNISFFYFTFAIG, the amyloid nucleation score entry is “inactive”.

With LCRKRYVRSHTTSWQTGGAF, the amyloid nucleation score came out at 0.888 ± 0.48.

In turn, CCVGGVPV showed an amyloid nucleation score of 2.57 ± 0.083.

Turning to EDFMRCRVWVSRGLVPSWGS, the amyloid nucleation score came to 0.747 ± 0.24.

For the substance IDFKHVL, the amyloid nucleation score is -0.964 ± 0.39.

WYNILLHNSAAEYLTY returned an amyloid nucleation score of -0.296 ± 0.34.

The substance FRLYFHPGVNGAET came in with an amyloid nucleation score of -0.356 ± 0.64.

Substance SVIKQNC showed an amyloid nucleation score of 0.547 ± 0.47.

As to CLSFIILMWLDRNVGMVQI, the amyloid nucleation score is -0.579 ± 0.49.

Turning to MIVWWNYCGSAVPRKIL, the amyloid nucleation score was -0.586 ± 1.1.

Regarding GITCCSMSRRFCFRGEGTEW, the amyloid nucleation score amounted to 3.81 ± 0.074.

In the case of WWSSDS, the amyloid nucleation score worked out at 1.73 ± 0.078.

The substance FIRNYWSVYGRWSANIFDDL showed an amyloid nucleation score of 0.48 ± 0.45.

VSHRIFGGNMWPGKSHECMC: the amyloid nucleation score entry was “inactive”.

In the case of TFAATIGTCMVEILSMGSPG, the amyloid nucleation score is 0.603 ± 0.52.

As to YYSDVGVYSVRGYLLWS, the amyloid nucleation score was -0.447 ± 0.61.

IKLLLMSLTVSVTGILQFKP returned an amyloid nucleation score of 4.51 ± 0.05.

On to SHQWLRRLPWVI, for which the amyloid nucleation score was 0.528 ± 0.44.

In turn, SILLYKFK returned an amyloid nucleation score of 1.54 ± 0.12.

Consider ALVCLMKSSFCTCEHLYDVR, for which the amyloid nucleation score turned out to be 7.168 ± 0.044.

In turn, YMYDVRICPFDNWVYRRNEC registered an amyloid nucleation score of -0.107 ± 0.74.

On to TSVVNLNRMAFKTKFLQNTI, for which the amyloid nucleation score is -1.1 ± 1.1.

For the substance SISGHSWTKCVRVHYALIYG, the amyloid nucleation score is 1.07 ± 0.38.

QFGYRCTTPC registered an amyloid nucleation score of 0.522 ± 0.3.

In turn, LFPLHFCNEHIMRLIKKLTG showed an amyloid nucleation score of 0.579 ± 0.8.

On to DYVTVVGIILVLLLLNFNLG, for which the amyloid nucleation score entry is “inactive”.

In the case of MLKIHFLPLLGQWTLCRNPL, the amyloid nucleation score was determined as 1.28 ± 0.43.

Consider NAYWNDGFVQAFGRGK, for which the amyloid nucleation score was -0.644 ± 0.63.

As for SPDRPPSVVVVDRSGDVMVC, the amyloid nucleation score was 1.57 ± 0.15.

NYIWFVNPYRRFSHVNHITN yielded an amyloid nucleation score of -0.176 ± 1.1.

Turning to IYACGYGLFYEYHTCSMCEI, the amyloid nucleation score is -0.977 ± 0.34.

On to ISAWAWHQVTWRIPGALVVG, for which the amyloid nucleation score stood at 0.294 ± 1.1.

In the case of RHRKMS, the amyloid nucleation score is -0.496 ± 0.23.

As for GCIIFGYLG, the amyloid nucleation score is 1.57 ± 0.16.
